According to patent US20120148593A1 (published 2012):
Positions count from the first letter of the chain named.

B1: mu7E3 murine monoclonal antibody (antibody, mouse IgG1, V domains shown)
VH: QVTLKESGPGILQPSQTLSLTCSFSGFSLTTYNIGVGWIRQPSGKGLEWLAHIWWNDNIYYNTVLKSRLTFSKDTSNNQVFLKIASVDIADTATYYCIRMAEGRYDAMDYWGQGTSVTVSS
VL: AIQMTQSTSSLSASLGDRVTINCRASQDITNYLNWYQQKPDGTVRLLIYYTSKLHSGAPSRFSGRGSGTDYSLTISNLEQEDIATYFCQQGNTFPWTFGGGTKLEIKR
B2: chimeric 7E3 MAb (antibody, V domains shown)
VH: B1 VH
VL: B1 VL
notes: also called 7E3 CHIM; 7E3 chimeric antibody
B3: mu18H10 murine monoclonal antibody (antibody, mouse IgG2b, V domains shown)
VH: QVQLQQSGADLVRPGALVKLSCTASGFNIKDSYIHWVKKRPEWGLEWIGWTDPENVNSIYDPRFQGKASITADTSSNTAFLQLTSLTSEDTAVYYCARGYNGVYYAMDYWGQGTTVTVSS
VL: QIVLTQSPSIMSASLGEEITLTCSASSSVIYMHWYQQKSGTSPKLLIYRTYNLASGVPSRFSGSGSGTFYSLTISSVEAEDAADYYCHQWSSFPYTFGGGTKLEIKR
B4: chimeric 18H10 MAb (antibody, V domains shown)
VH: B3 VH
VL: B3 VL
notes: also called 18H10chim; 18H10 chimeric antibody
B5: hu15C1 4-28 QC 30/A26 variant (antibody, V domains shown)
VH: QVQLQESGPGLVKPSDTLSLTCAVSGYSISGGYSWHWIRQPPGKGLEWMGYIHYSGYTDFNPSLKTRITISRDTSKNQFSLKLSSVTAVDTAVYYCARKDPSDGFPYWGQGTLVTVSS
VL: EIVLTQSPDFQSVTPKEKVTITCRASQSISDHLHWYQQKPDQSPKLLIKYASHAISGVPSRFSGSGSGTDFTLTINSLEAEDAATYYCQNGHSFPLTFGGGTKVEIK
notes: also called 15C1 4-28° C.30/A26
B6: hu15C1 4-28 QC 67/A26 variant (antibody, V domains shown)
VH: B5 VH with S30T, I68V
VL: B5 VL
notes: also called 15C1 4-28° C.67/A26
B7: hu15C1 4-28 QC 48/A26 variant (antibody, V domains shown)
VH: B5 VH with S30T, M49I
VL: B5 VL
notes: also called 15C1 4-28° C.48/A26
B8: hu15C1 4-28 QC 69/A26 variant (antibody, V domains shown)
VH: B5 VH with S30T, I70M
VL: B5 VL
notes: also called 15C1 4-28° C.69/A26
B9: mu15C1 murine monoclonal antibody (antibody, mouse IgG1, V domains shown)
VH: DVQLQESGPDLIQPSQSLSLTCTVTGYSITGGYSWHWIRQFPGNKLEWMGYIHYSGYTDFNPSLKTRISITRDTSKNQFFLQLNSVTTEDTATYYCARKDPSDGFPYWGQGTLVTVSA
VL: DIVMTQSPATLSVTPGDRVSLSCRASQSISDHLHWYQQKSHESPRLLIKYASHAISGIPSRFSGSGSGTDFTLSIKSVEPEDIGVYYCQNGHSFPLTFGAGTKLELKR
B10: chimeric 15C1 MAb (antibody, V domains shown)
VH: B9 VH
VL: B9 VL
notes: also called 15C1 CHIM; 15C1 chimeric antibody
B11: mu16G7 murine monoclonal antibody (antibody, mouse IgG1, V domains shown)
VH: QVKLQESGAELMKPGASVKISCKATGYKFSDYWIEWIKQRPGHGLEWIGEILPGSGSTNYNEDFKDKATFTSDTSSNTAYMQLSSLTSEDSAVYYCAKEERAYYFGYWGQGTTVTVSS
VL: DVEMTQTPLSLPVSLGDQASISCRSSQSLENSNGNTYLNWYLQKPGQSPQLLIYRVSNRFSGVLDRFSGSGSGTDFTLKISRVEAEDLGVYFCLQVTHVPPTFGAGTKLELKR

Tests used:
[1] = molecular target: T1, human TLR4/MD-2 receptor complex expressed on transfected cells (human, UniProt O00206 24-839; Q9Y6Y9 19-160); assay: flow cytometry, mock transfected vs TLR4/MD-2 transfected cells
T1 construct: Tags differ by cell line: CHO-K1: N-terminal c-myc on TLR4, C-terminal c-Myc and Protein C on MD-2; also called TLR4/MD-2 complex; hTLR4/MD-2
Target sequence in this assay (O00206 24-839 limits assumed, chain 1 of 2, one chain of several): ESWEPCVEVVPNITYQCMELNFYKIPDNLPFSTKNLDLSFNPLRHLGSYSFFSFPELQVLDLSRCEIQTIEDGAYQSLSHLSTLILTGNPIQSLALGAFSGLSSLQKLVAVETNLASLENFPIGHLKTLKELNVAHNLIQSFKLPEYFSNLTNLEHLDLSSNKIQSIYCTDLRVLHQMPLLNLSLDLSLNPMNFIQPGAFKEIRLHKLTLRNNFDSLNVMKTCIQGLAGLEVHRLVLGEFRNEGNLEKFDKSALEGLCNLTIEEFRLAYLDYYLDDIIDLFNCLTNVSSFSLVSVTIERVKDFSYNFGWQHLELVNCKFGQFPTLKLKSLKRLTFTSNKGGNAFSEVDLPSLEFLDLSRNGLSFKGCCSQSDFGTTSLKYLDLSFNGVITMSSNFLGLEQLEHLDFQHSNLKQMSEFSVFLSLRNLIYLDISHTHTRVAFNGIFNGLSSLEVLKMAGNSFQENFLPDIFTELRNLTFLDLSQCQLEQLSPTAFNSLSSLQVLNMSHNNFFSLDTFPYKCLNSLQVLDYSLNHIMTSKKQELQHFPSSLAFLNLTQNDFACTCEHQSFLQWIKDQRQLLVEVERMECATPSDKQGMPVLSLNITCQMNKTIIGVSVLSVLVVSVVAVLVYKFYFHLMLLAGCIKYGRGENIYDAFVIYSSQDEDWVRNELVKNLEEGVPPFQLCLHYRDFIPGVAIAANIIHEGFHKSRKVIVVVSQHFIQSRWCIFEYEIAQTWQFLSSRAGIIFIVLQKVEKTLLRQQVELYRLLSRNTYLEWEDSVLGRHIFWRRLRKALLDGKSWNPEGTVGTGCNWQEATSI

[2] = molecular target: T1, human TLR4/MD-2 receptor complex …; assay: flow cytometry, TLR4/MD-2 transfected CHO cells
Procedure: FIG. 41 is a graph depicting that the hu15C1 humanized antibody that includes VH 4-28 shown in SEQ ID NO:45 (“15C1 4-28/A26”) and variants thereof in which residues at chosen positions have been replaced by the corresponding amino acid in the given human germline (“15C1 4-28° C.30/A26”; “15C1 4-28° C.48/A26”; “15C1 4-28° C.67/A26” and “15C1 4-28° C.69/A26”, see TABLE 1) are capable of binding specifically to the human TLR4/MD-2 complex on the surface of transfected CHO cells. MAb binding to the TLR4/MD-2 transfected CHO cells is shown by flow cytometry using the hu15C1 antibodies or the chimeric 15C1 (“15C1 CHIM”) (described above) at the concentrations indicated. Binding is measured as a cellular Mean Fluorescence Intensity (MFI) value.

[3] = molecular target: T2, human MD-2 expressed in transfected HEK 293 cells (human, UniProt Q9Y6Y9 19-160); assay: sandwich ELISA, capture on anti-FLAG M2, biotinylated mu18H10
T2 construct: also called MD-2 alone; wt MD-2
T2 chain: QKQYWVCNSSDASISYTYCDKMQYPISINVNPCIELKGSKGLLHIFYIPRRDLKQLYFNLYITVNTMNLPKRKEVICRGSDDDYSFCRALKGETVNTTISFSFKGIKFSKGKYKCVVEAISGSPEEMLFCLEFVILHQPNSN
Procedure: For sample preparation, HEK 293 cells were transfected with the appropriate plasmid constructs using the Fugene 6™ transfection reagent as described in paragraph G above. 48 hours post-transfection, cells were collected and cleared by centrifugation. Cells were subsequently incubated with biotinylated mu18H10 (10 μg/ml) and lysed in 20 mM Tris pH 7.4, 150 mM NaCl, 1% NP40 containing COMPLETE™ protease inhibitors (Roche).
To perform the sandwich ELISA, Nunc maxisorp plate wells were coated with 50 μl of the anti-FLAG™ M2 MAb (Sigma) at a concentration of 5 μg/ml in PBS. Wells were blocked with 200 μl PBS 2% BSA and subsequently incubated with 50 μl of the appropriate samples at the indicated dilution. Wells were washed three times with 200 μl PBS 0.05% Tween 20 and incubated with 50 μl of the appropriate antibody (10 μg/ml for biotinylated mu18H10 and 12D4, 1 μg/ml for the polyclonal […]). Following a wash step as above, wells were incubated with 50 μl of the appropriate detection antibody (HRP conjugated streptavidin at a dilution of 1:1500 for the biotinylated MAbs and HRP conjugated anti-rabbit IgG (H+L) at a dilution of 1:5000 for the polyclonal rabbit Ab). […] Plates were read at a wavelength of 650 nm.

[4] = molecular target: T3, recombinant soluble MD-2 purified from baculovirus-infected insect cell supernatants (Homo sapiens (Human), UniProt Q9Y6Y9 19-160); assay: direct ELISA, MD-2 coated at 5 µg/ml
T3 construct: not shown: C-terminal FLAG and 6xHIS tags
T3 chain: T2 chain
Procedure: Recombinant soluble MD-2 with C terminal FLAG and histidine epitope tags was coated at a concentration of 5 μg/ml in 50 μl PBS on ELISA plates (Nunc Maxisorp). Wells were blocked with 200 μl PBS 2% BSA and subsequently incubated with the appropriate MAb at the indicated concentration in PBS 1% BSA. Following 3 wash steps with PBS 0.05% Tween 20, 50 μl HRP conjugated goat anti-mouse IgG (H+L) at a 1:5000 dilution was added to the wells. […] Plates were read at a wavelength of 650 nm.
Using direct ELISA, no binding of mu18H10 to recombinant soluble MD-2 generated with the baculovirus expression system was detected (FIG. 5a).

Binder	binding result [1]	binding result [2]	further results
B1	binds		
B2		binds	
B3	binds		binding result [3]: no binding (tested: 10 µg/ml); binding result [4]: no binding
B4		binds	
B5		binds	
B6		binds	
B7		binds	
B8		binds	
B9	binds		
B10		binds	
B11	binds		
